Results published in the nanobody polyreactivity screen of Harvey et al. (2022).

assay: yeast display, Sf9 membrane polyspecificity reagent, FACS + sequencing; frameworks hold sequencing errors
Procedure, shortened: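 Nanobodies came from a synthetic yeast display library in Saccharomyces cerevisiae BJ5465, induced with galactose for 36–48 hours and stained for 1 hour at 4 °C with 10% biotinylated, detergent-solubilized Sf9 membrane reagent. Cells were enriched on streptavidin microbeads and then FACS-sorted, with low and high (top ~1%) gates set on anti-HA fluorescence for expression and streptavidin fluorescence for reagent binding. Each polyreactivity label reflects the gate a clone came from. Genes were amplified by colony PCR, sequenced by MiSeq 2 × 250 and filtered by CDR length.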

Sequence	polyreactivity (PSR sort gate)
QVQLVESGGGLVQAGGSLRLSCAASGSIFDSYAMGWYRQAPGKERELVATINTSGGSTYYADSVKGRFTIHDNAKNTVYLQMNSLKPEDTAVYYCAVVVHYSTIGGGYRPRMYYWGQGTQVTVSS	low polyreactivity
QVQLVESGGGLVQAGGSLRLSCAASGSIFDSYAMGWYRQAPGKERELVAVISESGGTTYYADSVKGRFTISRDNAKNTVYLQMNSLKPEDTAVYYCAAVWYYQFGVWGYYWGQGTQVTVSS	low polyreactivity
QVQLVESGGGLVQAGGSLRLSCAASGSIFDSYVMGWYRQAPGKERELVAAITYSGGSTYADSVKGRFTISRDNAKNTVYLQMNSLKPEDTAVYYCAADLSGGSRYDYWGQGTQVTVSS	low polyreactivity
QVQLVESGGGLVQAGGSLRLSCAASGSIFDTNAMGWYRQAPGKERELVAAIRWSGGRTYYADSVKGRFTISRDNAKITVYLQMNSLKPEDTAVYYCNKVPRTPIPYKYGYWGQGTQVTVSS	high polyreactivity
QVQLVESGGGLVQAGGSLRLSCAASGSIFDTYAMGWYRQAPGKERELVAAITWGGGRTYYADSVKGRFTISRDNAKNTVYLQMNSLKPEDTAVYYCAARWRLRGGNQRYGYWGQGTQVTVSS	high polyreactivity
QVQLVESGGGLVQAGGSLRLSCAASGSIFDTYAMGWYRQAPGQERELVAAITSGGSTNYADSVKGRFTISRDNAKNTVYLQMNSLKPEETAVYYCAADAEDRPSWPGNSEYEYWGQGTQVTVSS	low polyreactivity
QVQLVESGGGLVQAGGSLRLSCAASGSIFDTYSMGWYIQAPGKERELVAAISSGGRTYYADSVKGRFTISRDNAKNTVYLQMNSLKPEDTAVYYCNARYHARYGGDYWGQGTQVTVSS	high polyreactivity
QVQLVESGGGLVQAGGSLRLSCAASGSIFDVNAMGWYRQAPGIERDLVAAISQRGTRTYYADSVKGRFTISRDNAKNTVYLQMNSLKPEDTAVYYCAARVPSVGNQSGYDYWGQGTQVTVSS	high polyreactivity
QVQLVESGGGLVQAGGSLRLSCAASGSIFDVNAMGWYRQAPGKERELVAAITSSGGSTYYADSVKGRFTISRDNAKNTVYLQMNSLKPVDTAVYYCAAYSLYTMYWGQGTQVTVSS	low polyreactivity
QVQLVESGGGLVQAGGSLRLSCAASGSIFDVNAMGWYRQAPGKESELVAAISDSGGSTYYADSVKGRFTISRDNAKTTVYLQMTSLKQEDTAVYYCNADWSWYNYYDFDYWGQGTQVTVSS	low polyreactivity
QVQLVESGGGLVQAGGSLRLSCAASGSIFDVNAMGWYRQAPWKERELVAAISDSGGSTYYADSVKGRFTISRDNANNTVYLQMNSLKPEDTAVYYCNADWSWYNYYDFDYWGQGTQVTVSS	low polyreactivity
QVQLVESGGGLVQAGGSLRLSCAASGSIFDVYAMGWYRQAPGKERELVATISNSAGSTYYADSVKGRFTISRDNAKNTVYLQMNSLKPEDTAVYYCAAVVVYFDEYDYWGQGTQVTVSS	low polyreactivity
QVQLVESGGGLVQAGGSLRLSCAASGSIFDVYGMGWYRQAPGKEREFVADITSRGTRTYYADSVKGRFTISRDNAKNTVYLQMNSLKPEDTAVYYCNTLVGVDFWLVDYWGQGTQVTLSS	low polyreactivity
QVQLVESGGGLVQAGGSLRLSCAASGSIFDVYGMGWYRQAPGKERELVARITSAGNTDYADSVKGRFTISRDNAKNTVYLQRNSLKPEDTAVYYCARDYVWFYGDTDFYYYLFDYWGQGTQVTVSS	low polyreactivity
QVQLVESGGGLVQAGGSLRLSCAASGSIFDVYTMGWYRQAPGKERELVAAINTGGGSTYYADSVKGRFTISRDNAKNTVYLQMNSLKPEDTAVYFCAASVYHYGPLYYWGQGTQVTVSS	low polyreactivity
QVQLVESGGGLVQAGGSLRLSCAASGSIFDWYAMGWYRQAPGKERELGAAITNSGGRTYYADSVKGRFTISRDTAKNTVYLQMNSLKPEDTAVYYCNASVFRLRKMYYWGQGTPVTVSS	high polyreactivity
